Reference: article PMC4548243, “Nuclear Localization of the DNA Repair Scaffold XRCC1: Uncovering the Functional Role of a Bipartite NLS” (Scientific Reports, 2015)
No end group written: not given here. *: point of attachment. FITC = O=C1OC2(c3ccc(O)cc3Oc3cc(O)ccc32)c2ccc(NC(=S)*)cc21

Tests used:
Conditions in all cases: both partners purified
[1] = molecular target: T1, murine Importin α with the Importin β binding domain (IBB) deleted, Impα(70–529) (murine, UniProt P52293 70-529); test: fluorescence polarisation; competition: serial dilutions of unlabeled peptide into 150 nM Impα(70–529) and 100 nM FITC-labeled FL-NLS peptide in FP buffer; fit to a competitive binding equation; apparent
[2] = molecular target: Impα(70–529)(W184R/W231R) (murine, UniProt P52293 70-529, W184R | W231R); test: fluorescence polarisation; direct titration: serial dilutions of Impα into 100 nM FITC-labeled peptide; FP buffer (20 mM Tris pH 7.7, 125 mM NaCl, 1 mM EDTA, 2 mM TCEP, 5% sucrose, 10 mM NaN3); room temperature (legend: 25 °C); apparent dissociation constants, single-site fit
[3] = molecular target: T1, murine Importin α with the Importin β …; test: as above

B1: NLS-E4: XRCC1(241–276)/(T257E/S259E/S266E/S268E) quadruple variant (peptide)
peptide: SPKGKRKLDLNQEEKKEPEKPPAQLEPEVPKRPKLP
notes: human XRCC1 residues 241-276 with four glutamate substitutions that mimic phosphorylation; also called NLS(T257E/S259E/S266E/S268E)
Which Kd [1] does the source give for B1 here?
The Kd was 0.604 µM.

B2: FL-NLS: FITC-XRCC1 (241–276) (peptide)
peptide: {FITC}-SPKGKRKLDLNQEEKKTPSKPPAQLSPSVPKRPKLP
notes: human XRCC1 residues 241-276, the bipartite NLS; also called Full XRCC1 NLS ligand; FITC-labeled bipartite XRCC1 NLS; source: synthetic peptide, bought: Genscript
How did the Kd [2] turn out when B2 was run?
Its Kd is 7.4 µM.

And the Kd [3]?
The Kd was 0.108 µM.

B3: M2: XRCC1 (268-276)-G-Lys-FITC (peptide)
peptide: SVPKRPKLPGK(FITC)
notes: added G-Lys that carries the FITC label; also called major motif ligand; major motif peptide; source: synthetic peptide, bought: Genscript
Which results are given for B3?
Kd [2]: 690 µM; Kd [3]: 2.1 µM
